Data as given in US20240018269A1.

Key:
[1] = biological target: recombinant soluble FcγRIIb (human) (UniProt P31994); assay: BLI (Octet); anti-TNP IgG captured on TNP-BSA-biotin, rsFcγR in solution; global 1:1 Langmuir fit
[2] = biological target: human FcγRIIb expressed on the cell surface (human) (UniProt P31994); assay: cell-based or functional assay
[3] = biological target: recombinant soluble FcγRIIa-Arg131 (human) (UniProt P12318); assay: BLI (Octet); anti-TNP IgG captured on TNP-BSA-biotin, rsFcγR in solution; global 1:1 Langmuir fit
Sequence of recombinant soluble FcγRIIa-Arg131 (human) (P12318 34-217 H167R): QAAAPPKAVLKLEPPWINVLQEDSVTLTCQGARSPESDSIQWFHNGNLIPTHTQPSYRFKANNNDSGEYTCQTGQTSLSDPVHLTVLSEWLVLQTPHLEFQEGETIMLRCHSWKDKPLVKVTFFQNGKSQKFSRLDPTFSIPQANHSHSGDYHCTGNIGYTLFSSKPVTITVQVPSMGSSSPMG

Sequence of human FcγRIIb expressed on the cell surface (human) (P31994 43-310): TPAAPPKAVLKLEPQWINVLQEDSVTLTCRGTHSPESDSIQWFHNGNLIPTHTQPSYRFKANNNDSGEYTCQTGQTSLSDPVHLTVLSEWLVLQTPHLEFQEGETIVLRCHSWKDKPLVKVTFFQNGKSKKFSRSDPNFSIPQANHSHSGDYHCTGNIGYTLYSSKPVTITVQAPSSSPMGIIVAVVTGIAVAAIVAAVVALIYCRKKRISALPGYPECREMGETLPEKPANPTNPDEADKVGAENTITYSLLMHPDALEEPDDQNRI
Sequence of recombinant soluble FcγRIIb (human) (P31994 43-217): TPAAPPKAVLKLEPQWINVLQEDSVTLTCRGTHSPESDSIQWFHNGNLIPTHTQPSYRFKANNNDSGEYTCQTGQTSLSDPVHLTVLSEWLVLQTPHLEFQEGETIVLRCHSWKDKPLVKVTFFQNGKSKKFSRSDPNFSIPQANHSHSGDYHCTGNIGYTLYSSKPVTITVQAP

Ka [1] [M⁻¹]	% inhibition of basophil activation (washed blood BAT) [2] [%]	% inhibition of basophil activation (whole blood BAT) [2] [%]	Ka [3] [M⁻¹]	Substance
400000	–	–	–	chimeric anti-TNP human IgG2-FEGG (antibody)
–	42	8	–	chimeric anti-TNP human IgG4-FEGG (antibody)
–	–	13	–	chimeric anti-TNP human IgG4-LLGG (antibody)
7.4e+07	–	–	3.49e+08	chimeric anti-TNP human IgG1-SELF (antibody)
